Laboratory results from patent US20240228986A1, “ENGINEERED CELLS, ENZYMES, AND METHODS FOR PRODUCING CANNABINOIDS” (priority 2021, published 2024).

B1: GPS1.1-F11-MPT31: fusion protein, SEQ ID NO: 27 (protein)
chain: MSKAKFESVFPRISEELVQLLRDEGLPQDAVQWFSDSLQYNCVGGKLNRGLSVVDTYQLLTGKKELDDEEYYRLALLGWLIELLQAFWLVSDDIMDESKTRRGQPCWYLKPKVGMIAIWDAFMLESGIYILLKKHFRQEKYYIDLVELFHDISFKTELGQLVDLLTAPEDEVDLNRFSLDKHSFIVRYKTAYYSFYLPVVLAMYVAGITNPKDLQQAMDVLIPLGEYFQVQDDYLDNFGDPEFIGKIGTDIQDNKCSWLVNKALQKATPEQRQILEDNYGVKDKSKELVIKKLYDDMKIEQDYLDYEEEVVGDIKKKIEQVDESRGFKKEVLNAFLAKIYKRQKGGAEAAAKEAAAKAGGSGGGSGGGGSGGSGGGGSGGGGSMSDNSIATKILNFGHACWKLQRPYVVKGMISIACGLFGRELLHNTNLISWGLMWKAFFALVPILSFNFFAAIMNQIYDLHIDRINKPDLPLASGEISVNTAWIMSIIVALTGLIVTIKLKSAPLFVFIYIFGIFAGFAYSVPPIRWKQNPSTNFLITISSHVGLAFTSYYASRAALGLPFELRPSFTFLLAFMTVMGMTIAFAKDISDIEGDAKYGVSTVATKLGARNMTFVVSGVLLLNYLVSISIGIIWPQVFKSNIMILSHAILAFWLILQTRDFALTNYDPEAGRRFFEFIWLLYYAEYLVYVFI
modifications: GPS1.1-F11-MPT31, geranyl diphosphate synthase, recombinant membrane-bound prenyltransferase fusion protein
B2: GPS1.1-F11-MPT26: fusion protein, SEQ ID NO: 26 (protein)
chain: MSKAKFESVFPRISEELVQLLRDEGLPQDAVQWFSDSLQYNCVGGKLNRGLSVVDTYQLLTGKKELDDEEYYRLALLGWLIELLQAFWLVSDDIMDESKTRRGQPCWYLKPKVGMIAIWDAFMLESGIYILLKKHFRQEKYYIDLVELFHDISFKTELGQLVDLLTAPEDEVDLNRFSLDKHSFIVRYKTAYYSFYLPVVLAMYVAGITNPKDLQQAMDVLIPLGEYFQVQDDYLDNFGDPEFIGKIGTDIQDNKCSWLVNKALQKATPEQRQILEDNYGVKDKSKELVIKKLYDDMKIEQDYLDYEEEVVGDIKKKIEQVDESRGFKKEVLNAFLAKIYKRQKGGAEAAAKEAAAKAGGSGGGSGGGGSGGSGGGGSGGGGSMSDNSIATKILNFGHTCWKLQRPYVVKGMISIACGLFGKELLHNTNLISWGLMWKAFFALVPILSFNFFAAIMNQIYDVDIDRINKPDLPLVSGEMSIETAWILSIIVALTGLIVTIKLKSAPLFVFIYIFGIFAGFAYSVPPIRWKQNPSTNFLITISSHVGLAFTSYSATTSALGLPFVWRPAFSFIIAFMTVMGMTIAFAKDISDIEGDAKYGVSTVATKLGARNMTFVVSGVLLLNYVAAILAGIIWPQAFNSNVMLLSHAILAFWLILQTRDFALTNYDPEAGRRFFEFIWLLYYAEYFVYVFI
modifications: GPS1.1-F11-MPT26, geranyl diphosphate synthase, recombinant membrane-bound prenyltransferase fusion protein
B3: GPS1.1-F16-APT73.77: fusion protein, SEQ ID NO: 63 (protein)
chain: MSKAKFESVFPRISEELVQLLRDEGLPQDAVQWFSDSLQYNCVGGKLNRGLSVVDTYQLLTGKKELDDEEYYRLALLGWLIELLQAFWLVSDDIMDESKTRRGQPCWYLKPKVGMIAIWDAFMLESGIYILLKKHFRQEKYYIDLVELFHDISFKTELGQLVDLLTAPEDEVDLNRFSLDKHSFIVRYKTAYYSFYLPVVLAMYVAGITNPKDLQQAMDVLIPLGEYFQVQDDYLDNFGDPEFIGKIGTDIQDNKCSWLVNKALQKATPEQRQILEDNYGVKDKSKELVIKKLYDDMKIEQDYLDYEEEVVGDIKKKIEQVDESRGFKKEVLNAFLAKIYKRQKGGGSGGGSGGGSGGGGSMDEVYAAVEQTSRLLDVPCSPDRFEPVWKAFGDQLPDSHLVFSMAAGEAHRGELDFDFSLRPEGADPYTTALEHGFIEPTDHPVGSVLAEVGKRFAIASYGVEYGVVGGFKKSYAFFPLDDFPPLAQFAEVPSVPPCLAGHVETLTRLGFDDKVSIIGVNYRKNTLNVYLAASAVDTGDKLALLRAFGYPEPDARVRQFIERSFRLYPTFNWDSSAAERICFAVHTQQPGELPAPHDEPTEAFARQVPHVYEGGREFVSGVALAPSGASYYKLAALYQKARRCLD
modifications: GPS1.1-F16-APT73.77, geranyl diphosphate synthase, mutant soluble aromatic prenyltransferase fusion protein
B4: APT73.77-F17-GPS1.1: fusion protein, SEQ ID NO: 64 (protein)
chain: MDEVYAAVEQTSRLLDVPCSPDRFEPVWKAFGDQLPDSHLVFSMAAGEAHRGELDFDFSLRPEGADPYTTALEHGFIEPTDHPVGSVLAEVGKRFAIASYGVEYGVVGGFKKSYAFFPLDDFPPLAQFAEVPSVPPCLAGHVETLTRLGFDDKVSIIGVNYRKNTLNVYLAASAVDTGDKLALLRAFGYPEPDARVRQFIERSFRLYPTFNWDSSAAERICFAVHTQQPGELPAPHDEPTEAFARQVPHVYEGGREFVSGVALAPSGASYYKLAALYQKARRCLDGGGGSMSKAKFESVFPRISEELVQLLRDEGLPQDAVQWFSDSLQYNCVGGKLNRGLSVVDTYQLLTGKKELDDEEYYRLALLGWLIELLQAFWLVSDDIMDESKTRRGQPCWYLKPKVGMIAIWDAFMLESGIYILLKKHFRQEKYYIDLVELFHDISFKTELGQLVDLLTAPEDEVDLNRFSLDKHSFIVRYKTAYYSFYLPVVLAMYVAGITNPKDLQQAMDVLIPLGEYFQVQDDYLDNFGDPEFIGKIGTDIQDNKCSWLVNKALQKATPEQRQILEDNYGVKDKSKELVIKKLYDDMKIEQDYLDYEEEVVGDIKKKIEQVDESRGFKKEVLNAFLAKIYKRQK
modifications: APT73.77-F17-GPS1.1, mutant soluble aromatic prenyltransferase, geranyl diphosphate synthase fusion protein
B5: GPS1.1-F18-APT73.77: fusion protein, SEQ ID NO: 65 (protein)
chain: MSKAKFESVFPRISEELVQLLRDEGLPQDAVQWFSDSLQYNCVGGKLNRGLSVVDTYQLLTGKKELDDEEYYRLALLGWLIELLQAFWLVSDDIMDESKTRRGQPCWYLKPKVGMIAIWDAFMLESGIYILLKKHFRQEKYYIDLVELFHDISFKTELGQLVDLLTAPEDEVDLNRFSLDKHSFIVRYKTAYYSFYLPVVLAMYVAGITNPKDLQQAMDVLIPLGEYFQVQDDYLDNFGDPEFIGKIGTDIQDNKCSWLVNKALQKATPEQRQILEDNYGVKDKSKELVIKKLYDDMKIEQDYLDYEEEVVGDIKKKIEQVDESRGFKKEVLNAFLAKIYKRQKGGGGSLEDPAVWEAGKVVAKGVGTADITATTSNGLIASSEEADNAATSMDEVYAAVEQTSRLLDVPCSPDRFEPVWKAFGDQLPDSHLVFSMAAGEAHRGELDFDFSLRPEGADPYTTALEHGFIEPTDHPVGSVLAEVGKRFAIASYGVEYGVVGGFKKSYAFFPLDDFPPLAQFAEVPSVPPCLAGHVETLTRLGFDDKVSIIGVNYRKNTLNVYLAASAVDTGDKLALLRAFGYPEPDARVRQFIERSFRLYPTFNWDSSAAERICFAVHTQQPGELPAPHDEPTEAFARQVPHVYEGGREFVSGVALAPSGASYYKLAALYQKARRCLD
modifications: GPS1.1-F18-APT73.77, geranyl diphosphate synthase, mutant soluble aromatic prenyltransferase fusion protein

How the values were obtained:
olivetolic acid [1] = experiment: MPT fusions with GPS1.1 vs unfused MPTs, OA feed (Example 8, Table 9); assay type: cell-based, Yarrowia; conditions: 2 mM olivetolic acid, 48 h quench; for CBGA / FCBGA: 2% glucose, strain sCL-SE-0128; for CBGA/FCBGA: product ratio
Method: (§1) As described below, plasmids pCL-SE-0406, pCL-SE-0664, pCL-SE-0663, pCL-SE-0662, pCL-SE-0380 (MPT4), pCL-SE-0337.MPT21, pCL-SE-0337.MPT26, and pCL-SE-0337.MPT31 were transformed into strain sCL-SE-0128. Multiple colonies per transformation were precultured for 48 h in YNB containing glucose (2%), casamino acids (0.5%), and MES (100 mM pH 6.5). Pre-culture was used to inoculate assay medium comprised of YNB containing glucose (2%), casamino acids (0.5%), MES (100 mM pH 6.5), and olivetolic acid (2 mM). Cultures were quenched with equal volume of ethanol after 48 h total growth and assayed for CBGA and FCBGA. Averages and standard deviations were calculated from replicates.
(§2) Overnight YPD (10 g/L yeast extract, 20 g/L peptone, 2% dextrose) cultures were inoculated from glycerol stocks of the appropriate strain and grown at 30° C. with 250 rpm shaking. Once cultures had reached an OD600 of 4-6, cultures were centrifuged at 500×g for 5 min, supernatants were discarded, and cell pellets were resuspended in equal volume of water. Resuspended cells were centrifuged at 500×g for 5 min, supernatants were discarded, and cells were resuspended in a volume (75 μL×OD×Vculture) of transformation cocktail (45% PEG-400, 0.1 M LiAc, 0.1 M DTT, and 25 ug/100 μL SS Salmon Sperm DNA). For each transformation, >1 μg of plasmid DNA was added to 55 μL cells/transformation cocktail and vortexed for 2 s. Transformations were incubated at 39° C. for 1 h with 250 rpm shaking. Transformations were resuspended in 750 μL YPD with 1 M sorbitol and recovered at 30° C. overnight with 250 rpm shaking. The next day, transformations were centrifuged at 500×g for 5 min, supernatants were discarded, and cell pellets were resuspended in 750 YPD. Resuspended transformations were plated on YPD with appropriate selection or YNBD (6.71 g/L yeast nitrogen base+nitrogen, 0.5% casamino acids, 2% dextrose) agar plates and grown at 30° C. for 2 days. Individual colonies were patched onto YPD plates with appropriate selection or YNBD plates and grown at 30° C. overnight. Patches were used to inoculate 0.5 mL YPD with appropriate selection or YNBD precultures in 96 w blocks and grown at 30° C. for 24-48 h with 1000 rpm shaking. For assays, 0.5 mL YPD with appropriate selection or YNBD cultures containing substrate were inoculated with 2 μL from precultures and grown at 30° C. for 2-4 days with 1000 rpm shaking with 2% glucose added every 24 h. Assay cultures were quenched by addition of 0.5 mL ethanol with 0.2% formic acid and 0.5 mg/mL pentyl-benzoic acid. Precipitates were pelleted by centrifuging at 4600×g for 10 min and then 200 μL was transferred to fresh plates, sealed, and analyzed via HPLC.
(§3) All samples were quenched with equal volume of EtOH containing 0.2 mg/mL internal standard (3,5-Diisopropyl-2-hydroxybenzoic acid CAS #2215-21-6) centrifuged, and clarified solutions were analyzed by HPLC-MS
(§4) • Column: 2.1×50 mm COSMOCORE PBr (Nacalai USA, Inc.) • Mobile Phase: A; 0.1% formic acid in water, B; 0.1% formic acid in acetonitrile • Flow: 0.45 mL/min • Temp: % 50 Celsius • Gradient: 20%B at 0 min, 70%B at 2.3 min, 89% B at 4.2 min, 20% B at 4.3 min, 20%B at 6 min

olivetolic acid [2] = experiment: GPS-APT fusions, OA feed in vivo assay (Example 11); assay type: cell-based, Yarrowia; conditions: for CBGA / FCBGA: olivetolic acid feed as in Example 8, 48 h quench, strain sCL-SE-0128; for CBGA/FCBG: olivetolic acid feed, 48 h quench, product ratio
Method: as §1
Soluble prenyl transferase APT73.77 was fused with GPS1.1 at the N- or C-terminus with different linkers creating the plasmids shown in Table 14. These fusion proteins were expressed and screened as described in Example 8 (olivetolic acid feed)
as §2, §3, §4

Molecule | CBGA (olivetolic acid [1]) | FCBGA (olivetolic acid [1]) | CBGA/FCBGA (olivetolic acid [1]) | CBGA (olivetolic acid [2]) | FCBGA (olivetolic acid [2]) | CBGA/FCBG (olivetolic acid [2])
B1 | 53 ± 4 µM | 5 ± 0 µM | 10.8 | – | – | –
B2 | 98 ± 8 µM | 21 ± 2 µM | 4.6 | – | – | –
B3 | – | – | – | 421 ± 44 µM | 113 ± 12 µM | 3.7
B4 | – | – | – | 242 ± 36 µM | 73 ± 9 µM | 3.3
B5 | – | – | – | 468 ± 24 µM | 121 ± 2 µM | 3.9
